Data on 1 molecule can be found in patent US20250339531A1 (FRED HUTCHINSON CANCER CENTER, published 2025).

Assay in all cases: anti-FLAG co-IP LC-MS, exp 4, +Dox +IFNG
In test [1] the target is T1, Immunoglobulin kappa variable 2-40 (Homo sapiens).
T1 construct: also called IGKV2-40

Test [2] has as its target T2, DNA-dependent protein kinase catalytic subunit (Homo sapiens, UniProt P78527 1-4128).
T2 construct: also called PRKDC

For test [3], the target named is T3, Nuclease-sensitive element-binding protein 1 (Fragment) (Homo sapiens, UniProt P67809 2-324).
T3 construct: also called YBX1
T3 sequence (P67809 2-324 limits assumed): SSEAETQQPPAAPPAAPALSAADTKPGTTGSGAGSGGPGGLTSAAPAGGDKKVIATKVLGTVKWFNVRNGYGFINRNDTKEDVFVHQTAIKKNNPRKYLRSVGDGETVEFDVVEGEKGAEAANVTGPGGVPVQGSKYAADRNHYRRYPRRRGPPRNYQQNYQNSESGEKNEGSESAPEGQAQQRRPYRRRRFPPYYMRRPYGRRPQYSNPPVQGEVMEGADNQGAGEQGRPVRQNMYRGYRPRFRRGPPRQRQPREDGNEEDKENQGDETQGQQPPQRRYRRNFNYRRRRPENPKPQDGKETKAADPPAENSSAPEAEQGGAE

Test [4] concerns the target T4, Heterogeneous nuclear ribonucleoprotein M (Homo sapiens, UniProt P52272 2-730).
T4 construct: also called HNRNPM
T4 sequence (looked up): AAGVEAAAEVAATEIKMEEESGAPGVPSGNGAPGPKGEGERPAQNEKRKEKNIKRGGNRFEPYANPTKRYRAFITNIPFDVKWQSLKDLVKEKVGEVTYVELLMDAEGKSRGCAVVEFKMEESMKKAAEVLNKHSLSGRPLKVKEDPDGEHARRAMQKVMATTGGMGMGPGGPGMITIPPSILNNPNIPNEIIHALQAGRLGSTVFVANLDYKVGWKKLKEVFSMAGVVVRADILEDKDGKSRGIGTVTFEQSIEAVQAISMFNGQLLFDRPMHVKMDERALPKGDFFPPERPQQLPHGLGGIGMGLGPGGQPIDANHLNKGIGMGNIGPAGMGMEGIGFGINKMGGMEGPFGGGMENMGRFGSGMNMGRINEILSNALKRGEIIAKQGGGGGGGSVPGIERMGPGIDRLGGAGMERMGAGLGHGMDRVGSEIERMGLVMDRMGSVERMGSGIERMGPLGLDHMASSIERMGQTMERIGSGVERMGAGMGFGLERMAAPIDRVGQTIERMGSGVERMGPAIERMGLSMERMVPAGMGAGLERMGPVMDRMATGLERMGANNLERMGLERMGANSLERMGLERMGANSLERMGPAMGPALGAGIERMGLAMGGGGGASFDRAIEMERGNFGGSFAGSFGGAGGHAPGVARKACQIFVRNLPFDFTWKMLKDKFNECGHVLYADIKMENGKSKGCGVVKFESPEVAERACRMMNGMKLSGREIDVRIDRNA

Test [5] has as its target T5, Polyadenylate-binding protein 1 (Homo sapiens, UniProt P11940 1-636).
T5 construct: also called PABPC1

A further test deals with T6, Nucleolin (Homo sapiens, UniProt P19338 2-710).
T6 construct: also called NCL
T6 sequence (P19338 2-710 limits assumed): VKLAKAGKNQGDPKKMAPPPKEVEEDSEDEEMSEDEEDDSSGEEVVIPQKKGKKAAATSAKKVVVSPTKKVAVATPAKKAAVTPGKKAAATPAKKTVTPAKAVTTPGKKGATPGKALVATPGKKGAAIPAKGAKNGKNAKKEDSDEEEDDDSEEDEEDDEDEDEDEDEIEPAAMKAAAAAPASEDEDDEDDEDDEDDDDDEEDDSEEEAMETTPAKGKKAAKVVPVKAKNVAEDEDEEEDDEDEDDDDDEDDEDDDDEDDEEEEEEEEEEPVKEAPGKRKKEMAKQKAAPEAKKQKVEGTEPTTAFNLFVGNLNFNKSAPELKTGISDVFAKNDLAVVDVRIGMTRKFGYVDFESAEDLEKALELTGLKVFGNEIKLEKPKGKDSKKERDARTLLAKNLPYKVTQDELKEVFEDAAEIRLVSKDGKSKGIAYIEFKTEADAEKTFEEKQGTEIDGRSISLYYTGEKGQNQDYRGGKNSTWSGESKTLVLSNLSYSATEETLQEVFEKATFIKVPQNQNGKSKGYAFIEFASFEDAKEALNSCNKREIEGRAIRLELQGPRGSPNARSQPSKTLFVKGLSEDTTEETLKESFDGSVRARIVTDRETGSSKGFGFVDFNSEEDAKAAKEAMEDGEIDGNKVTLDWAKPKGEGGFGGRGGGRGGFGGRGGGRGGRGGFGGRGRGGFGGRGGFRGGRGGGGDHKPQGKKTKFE

For test [6], the target named is T7, Cyclin-dependent kinase 4 (Homo sapiens, UniProt P11802 2-303).
T7 construct: also called CDK4
T7 sequence (P11802 2-303 limits assumed): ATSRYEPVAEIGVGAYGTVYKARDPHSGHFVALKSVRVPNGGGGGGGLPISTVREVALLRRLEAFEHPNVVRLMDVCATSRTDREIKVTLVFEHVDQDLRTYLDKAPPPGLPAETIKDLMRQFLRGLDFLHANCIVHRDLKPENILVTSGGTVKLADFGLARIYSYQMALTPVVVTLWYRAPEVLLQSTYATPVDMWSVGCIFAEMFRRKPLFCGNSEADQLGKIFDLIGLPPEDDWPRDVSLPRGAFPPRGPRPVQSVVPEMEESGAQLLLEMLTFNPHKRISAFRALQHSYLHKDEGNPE

Test [7] deals with T8, Signal transducer and activator of transcription 1-alpha/beta (Homo sapiens, UniProt P42224 2-750).
T8 construct: also called STAT1
T8 sequence (looked up): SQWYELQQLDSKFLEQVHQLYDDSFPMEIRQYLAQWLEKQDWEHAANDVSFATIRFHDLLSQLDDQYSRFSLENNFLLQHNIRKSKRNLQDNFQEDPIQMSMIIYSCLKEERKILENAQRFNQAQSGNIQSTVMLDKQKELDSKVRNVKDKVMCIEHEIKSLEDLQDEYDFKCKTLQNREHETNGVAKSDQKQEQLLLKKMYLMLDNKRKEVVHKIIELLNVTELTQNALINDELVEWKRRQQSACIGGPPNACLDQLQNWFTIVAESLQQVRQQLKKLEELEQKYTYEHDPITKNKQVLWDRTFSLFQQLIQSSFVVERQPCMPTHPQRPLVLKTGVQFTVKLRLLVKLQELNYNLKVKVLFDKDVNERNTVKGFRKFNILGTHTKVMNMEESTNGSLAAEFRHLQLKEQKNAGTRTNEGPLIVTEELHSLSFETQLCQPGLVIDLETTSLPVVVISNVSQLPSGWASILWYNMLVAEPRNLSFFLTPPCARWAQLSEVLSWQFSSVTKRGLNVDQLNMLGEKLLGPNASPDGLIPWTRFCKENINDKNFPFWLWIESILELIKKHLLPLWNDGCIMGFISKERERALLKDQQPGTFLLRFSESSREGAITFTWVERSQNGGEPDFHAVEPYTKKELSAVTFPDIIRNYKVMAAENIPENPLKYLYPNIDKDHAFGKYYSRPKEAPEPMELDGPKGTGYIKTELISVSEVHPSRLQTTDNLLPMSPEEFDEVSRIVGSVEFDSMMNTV

Test [8] addresses T9, Uncharacterized protein (Fragment) (Homo sapiens).
T9 construct: also called NA (Homology to TAP2)

In test [9] the target is T10, cDNA FLJ56329, highly similar to Myosin light polypeptide 6 (Homo sapiens).
T10 construct: also called MYL6

T1 sequence (A0A087WW87 20-121): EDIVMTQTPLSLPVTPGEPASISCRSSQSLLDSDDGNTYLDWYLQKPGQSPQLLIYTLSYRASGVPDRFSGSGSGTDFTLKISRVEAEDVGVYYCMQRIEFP
T5 sequence (P11940 whole entry): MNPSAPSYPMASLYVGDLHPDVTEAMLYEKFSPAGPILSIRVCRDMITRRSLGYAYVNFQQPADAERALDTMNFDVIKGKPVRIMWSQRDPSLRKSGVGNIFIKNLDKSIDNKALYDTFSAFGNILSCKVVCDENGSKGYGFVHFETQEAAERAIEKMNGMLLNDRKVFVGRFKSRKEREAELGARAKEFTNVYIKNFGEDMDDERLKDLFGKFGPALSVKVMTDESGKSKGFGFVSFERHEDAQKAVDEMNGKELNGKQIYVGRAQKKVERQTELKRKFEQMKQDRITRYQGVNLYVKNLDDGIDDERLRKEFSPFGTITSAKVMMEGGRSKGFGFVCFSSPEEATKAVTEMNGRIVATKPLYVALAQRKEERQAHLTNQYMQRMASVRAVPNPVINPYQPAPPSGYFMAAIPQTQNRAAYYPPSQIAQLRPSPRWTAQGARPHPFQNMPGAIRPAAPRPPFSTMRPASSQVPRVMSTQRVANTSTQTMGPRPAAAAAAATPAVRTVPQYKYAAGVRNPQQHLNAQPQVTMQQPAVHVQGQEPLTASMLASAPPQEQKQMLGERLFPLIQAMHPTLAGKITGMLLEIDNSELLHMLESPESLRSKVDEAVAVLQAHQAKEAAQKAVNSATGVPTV

B1: i3XFLAG-NLS-CTDaa154-424 (other)
chain: MDYKDHDGDYKDHDIDYKDDDDKPPKRMRREPKKKRKVGRAPAQAGGLCSAAPGGGHPAPSWVAFAHTGAWGTGLPAPHVPCAPGALPQGAFVSQAARAAPALQPSQAAPAEGISQPAPARGDFAYAAPAPPDGALSHPQAPRWPPHPGKSREDRDPQRDGLPGPCAVAQPGPAQAGPQGQGVLAPPTSQGSPWWGWGRGPQVAGAAWEPQAGAAPPPQPAPPDASASARQGQMQGIPAPSQALQEPAPWSALPCGLLLDELLASPEFLQQAQPLLETEAPGELEASEEAASLEAPLSEEEYRALLEEL
notes: Doxycycline-induced in MB135 cells for co-IP; also called longCTD; iDUX4-CTD
In the case of B1, the PSMs in [1] stood at 5 PSMs; in test [2] it was 2 PSMs; in test [3], 7 PSMs; in test [4] it was 2 PSMs; in test [5], 3 PSMs; in the test with Nucleolin it was 1 PSMs. Besides, the PSMs in test [6] stood at 11 PSMs; in [7], 19 PSMs; in test [8], 1 PSMs; in test [9] it was 5 PSMs.
